From publication PMC10636204

Target: T1, mouse TMEM63B (purified, GFP tag removed) (mouse), Q3TWI9
T1 chain: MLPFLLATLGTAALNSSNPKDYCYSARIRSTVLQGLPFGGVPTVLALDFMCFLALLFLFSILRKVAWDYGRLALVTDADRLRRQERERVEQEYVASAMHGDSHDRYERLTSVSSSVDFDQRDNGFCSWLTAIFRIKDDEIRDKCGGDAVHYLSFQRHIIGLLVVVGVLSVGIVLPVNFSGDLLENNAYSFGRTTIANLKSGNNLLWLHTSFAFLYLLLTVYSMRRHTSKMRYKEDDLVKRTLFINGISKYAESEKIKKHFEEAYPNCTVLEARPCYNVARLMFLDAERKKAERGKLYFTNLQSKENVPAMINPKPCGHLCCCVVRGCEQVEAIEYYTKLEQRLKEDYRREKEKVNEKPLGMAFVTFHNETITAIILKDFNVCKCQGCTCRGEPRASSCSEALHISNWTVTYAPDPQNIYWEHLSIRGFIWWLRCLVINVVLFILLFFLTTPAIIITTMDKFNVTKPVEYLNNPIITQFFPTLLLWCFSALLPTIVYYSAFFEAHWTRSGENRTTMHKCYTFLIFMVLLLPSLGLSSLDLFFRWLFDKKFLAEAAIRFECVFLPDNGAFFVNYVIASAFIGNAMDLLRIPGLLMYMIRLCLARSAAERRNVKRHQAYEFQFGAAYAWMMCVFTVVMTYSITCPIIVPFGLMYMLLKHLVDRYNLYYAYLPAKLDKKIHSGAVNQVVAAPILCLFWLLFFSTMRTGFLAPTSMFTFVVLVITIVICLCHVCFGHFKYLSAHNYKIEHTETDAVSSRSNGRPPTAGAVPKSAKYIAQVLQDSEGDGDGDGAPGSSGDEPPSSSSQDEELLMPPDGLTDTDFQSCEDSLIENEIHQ
Experiment: cryo-EM 2D classification; purified mouse TMEM63B; 2D classification of particles, top/bottom views
Conditions: remark: other sources report otherwise

B1: mouse TMEM63B (purified, GFP tag removed), Q3TWI9 1-832 (natural protein)
chain: MLPFLLATLGTAALNSSNPKDYCYSARIRSTVLQGLPFGGVPTVLALDFMCFLALLFLFSILRKVAWDYGRLALVTDADRLRRQERERVEQEYVASAMHGDSHDRYERLTSVSSSVDFDQRDNGFCSWLTAIFRIKDDEIRDKCGGDAVHYLSFQRHIIGLLVVVGVLSVGIVLPVNFSGDLLENNAYSFGRTTIANLKSGNNLLWLHTSFAFLYLLLTVYSMRRHTSKMRYKEDDLVKRTLFINGISKYAESEKIKKHFEEAYPNCTVLEARPCYNVARLMFLDAERKKAERGKLYFTNLQSKENVPAMINPKPCGHLCCCVVRGCEQVEAIEYYTKLEQRLKEDYRREKEKVNEKPLGMAFVTFHNETITAIILKDFNVCKCQGCTCRGEPRASSCSEALHISNWTVTYAPDPQNIYWEHLSIRGFIWWLRCLVINVVLFILLFFLTTPAIIITTMDKFNVTKPVEYLNNPIITQFFPTLLLWCFSALLPTIVYYSAFFEAHWTRSGENRTTMHKCYTFLIFMVLLLPSLGLSSLDLFFRWLFDKKFLAEAAIRFECVFLPDNGAFFVNYVIASAFIGNAMDLLRIPGLLMYMIRLCLARSAAERRNVKRHQAYEFQFGAAYAWMMCVFTVVMTYSITCPIIVPFGLMYMLLKHLVDRYNLYYAYLPAKLDKKIHSGAVNQVVAAPILCLFWLLFFSTMRTGFLAPTSMFTFVVLVITIVICLCHVCFGHFKYLSAHNYKIEHTETDAVSSRSNGRPPTAGAVPKSAKYIAQVLQDSEGDGDGDGAPGSSGDEPPSSSSQDEELLMPPDGLTDTDFQSCEDSLIENEIHQ
stoichiometry N: 2
